{"source": "paper PMC3573263", "about": "(Chemical biology & drug design, 2013)", "target": "YopH PTPase domain (active catalytic domain, residues 164-468), wild type (Yersinia pestis, UniProt O68720 164-468)", "assay": "SPR", "note": "[ ]: non-standard residue; d: D form. The star is where a group is joined. Biotin = O=C1N[C@H]2[C@H](CS[C@H]2CCCCC(=O)*)N1; pY = N[C@@H](Cc1ccc(OP(=O)(O)O)cc1)C(=O)O", "data": [{"binder": "Biotin-LVDADE[pY]LIPQQG-OH (SMILES CC[C@H](C)[C@H](NC(=O)[C@H](CC(C)C)NC(=O)[C@H](Cc1ccc(OP(=O)(O)O)cc1)NC(=O)[C@H](CCC(=O)O)NC(=O)[C@H](CC(=O)O)NC(=O)[C@H](C)NC(=O)[C@H](CC(=O)O)NC(=O)[C@@H](NC(=O)[C@H](CC(C)C)NC(=O)CCCC[C@@H]1SC[C@@H]2NC(=O)N[C@@H]21)C(C)C)C(=O)N1CCC[C@H]1C(=O)N[C@@H](CCC(N)=O)C(=O)N[C@@H](CCC(N)=O)C(=O)NCC(=O)O)", "note": "[biotinylated pTyr-EGFR peptide, biotin-LVDADEpYLIPQQG-COOH]", "values": [{"measurement": "koff", "result": 0.0214, "unit": "s⁻¹"}, {"measurement": "kon", "result": 34.9, "unit": "M⁻¹ s⁻¹"}]}]}
